± gives the standard deviation of the averaged measurements.
How the values were obtained:
[1] = tested on: Saccharomyces cerevisiae; test: protein stability index of tFT-peptide fusion (C-terminal peptide) (PSI (0-1 scale)); higher = more stable (slower turnover)
Method: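 MPS profiling in S. cerevisiae of the tFT-X12 degron library: putative degron peptides plus stable controls, 12 aa, fused to the C-terminus of a sfGFP-mCherry timer. Cells are FACS-sorted into 8 mCherry/sfGFP bins and deep-sequenced. PSI runs from 0 (unstable) to 1 (stable). Backgrounds are wild type, das1Δ and doa10Δ at 30 °C, and wild type, das1Δ, cdc34-1 and cdc53-1 at 37 °C; 2-3 technical replicates each.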

[2] = tested on: Saccharomyces cerevisiae; test: as above; settings: genetic background: wild type; temperature: 30 C
[3] = genetic background: cdc34-1, temperature: 37 C
[4] = genetic background: cdc53-1, temperature: 37 C
[5] = genetic background: das1 deletion, temperature: 30 C
[6] = genetic background: das1 deletion, temperature: 37 C
[7] = genetic background: doa10 deletion, temperature: 30 C
[8] = genetic background: wild type, temperature: 30 C
[9] = genetic background: wild type, temperature: 37 C
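Further: PSI is a weighted mean of sequencing reads over stability bins, variants kept only with over 10 reads, mCherry proximal and sfGFP distal, peptide attached via GGGS linker.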

Row | Sequence | protein stability index [1, 3] | protein stability index [1, 4] | protein stability index [1, 5] | protein stability index [1, 6] | protein stability index [1, 7] | protein stability index [1, 8] | protein stability index [1, 9] | protein stability index [2]
1 | GYRRCCHFLFTL | 0.671 ± 0.02 | 0.735 ± 0.035 | 0.622 ± 0.023 | 0.747 ± 0.00099 | 0.359 ± 0.023 | 0.375 ± 0.029 | 0.56 ± 0.0064 | 0.423 ± 0.034
2 | HHRLRQGLRRIN | 0.64 ± 0.039 | 0.7278 ± 0.0055 | 0.638 ± 0.0082 | 0.7023 ± 0.003 | 0.251 ± 0.0034 | 0.293 ± 0.0082 | 0.5161 ± 0.0011 | 0.462 ± 0.014
3 | HPPPTLVPPHPR | 0.64 ± 0.032 | 0.709 ± 0.031 | 0.674 ± 0.011 | 0.727 ± 0.0074 | 0.7045 ± 0.0028 | 0.681 ± 0.019 | 0.6803 ± 0.0027 | 0.616 ± 0.19
4 | HRLQFKGYPICA | 0.243 ± 0.039 | 0.255 ± 0.067 | 0.235 ± 0.048 | 0.371 ± 0.015 | 0.18 ± 0.0058 | 0.223 ± 0.025 | 0.338 ± 0.0061 | 0.33 ± 0.0051
5 | HRPRPLLKLLAS | – | 0.596 ± 0.098 | 0.585 ± 0.083 | 0.67983 ± 0.0006 | 0.0522 ± 0.045 | 0.0779 ± 0.044 | 0.0284 ± 0.018 | 0.145 ± 0.011
6 | HSRRRRPTPQSL | 0.609 ± 0.047 | 0.65 ± 0.016 | 0.651 ± 0.036 | 0.636 ± 0.011 | 0.662 ± 0.014 | 0.64 ± 0.019 | 0.61 ± 0.016 | 0.571 ± 0.12
7 | HVCKLAMFQWYF | 0.6 ± 0.011 | 0.713 ± 0.031 | 0.609 ± 0.012 | 0.72211 ± 0.00042 | 0.2873 ± 0.0019 | 0.302 ± 0.02 | 0.533 ± 0.029 | 0.371 ± 0.018
8 | ICIFWLITGLWL | 0.465 ± 0.074 | 0.459 ± 0.026 | 0.336 ± 0.03 | 0.487 ± 0.019 | 0.304 ± 0.014 | 0.324 ± 0.013 | 0.4633 ± 0.0029 | 0.3884 ± 0.00079
9 | IFLCRNGAVFIC | 0.398 ± 0.07 | 0.7987 ± 0.0065 | 0.733 ± 0.016 | 0.872 ± 0.019 | 0.0808 ± 0.021 | 0.0798 ± 0.016 | 0.0995 ± 0.012 | 0.158 ± 0.015
10 | IFRVTGFPIYIF | 0.327 ± 0.045 | 0.36 ± 0.024 | 0.339 ± 0.021 | 0.4535 ± 0.0037 | 0.222 ± 0.014 | 0.233 ± 0.025 | 0.3522 ± 0.0011 | 0.297 ± 0.012
11 | IGFSPSFQLYSA | 0.726 ± 0.0078 | 0.756 ± 0.012 | 0.666 ± 0.0083 | 0.77318 ± 9.2e-05 | 0.6445 ± 0.0049 | 0.67 ± 0.016 | 0.747 ± 0.012 | 0.721 ± 0.0083
12 | IGILVTAVPVFD | 0.507 ± 0.057 | 0.518 ± 0.0058 | 0.386 ± 0.042 | 0.5522 ± 0.0021 | 0.343 ± 0.013 | 0.382 ± 0.021 | 0.529 ± 0.011 | 0.451 ± 0.012
13 | IIAGVWFLEILG | 0.4134 ± 0.0039 | 0.525 ± 0.009 | 0.333 ± 0.027 | 0.527 ± 0.012 | 0.308 ± 0.012 | 0.312 ± 0.022 | 0.497 ± 0.023 | 0.479 ± 0.015
14 | IIGCIAICLMVN | 0.0164 ± 0.0065 | 0.214 ± 0.25 | 0.0942 ± 0.042 | 0.0938 ± 0.019 | 0.0381 ± 0.015 | 0.0451 ± 0.016 | 0.0405 ± 0.027 | 0.0843 ± 0.012
15 | IKCVPLVWRLTV | 0.457 ± 0.0073 | 0.594 ± 0.045 | 0.534 ± 0.038 | 0.6384 ± 0.0023 | 0.109 ± 0.022 | 0.123 ± 0.02 | 0.1955 ± 0.001 | 0.272 ± 0.031
16 | IKIQPKKRISLI | 0.658 ± 0.056 | 0.707 ± 0.058 | 0.632 ± 0.039 | 0.702 ± 0.017 | 0.155 ± 0.0043 | 0.174 ± 0.043 | 0.391 ± 0.031 | 0.299 ± 0.0067
17 | ILAVMFEIYAIL | 0.422 ± 0.013 | 0.5124 ± 0.0015 | 0.349 ± 0.042 | 0.533 ± 0.0094 | 0.185 ± 0.018 | 0.228 ± 0.029 | 0.42 ± 0.023 | 0.3593 ± 0.0012
18 | ILCYVWLVFSGF | 0.225 ± 0.0092 | 0.311 ± 0.019 | 0.223 ± 0.029 | 0.382 ± 0.01 | 0.194 ± 0.0036 | 0.204 ± 0.032 | 0.369 ± 0.025 | 0.373 ± 0.022
19 | INHVIHAKLRFS | 0.629 ± 0.015 | 0.675 ± 0.082 | 0.643 ± 0.011 | 0.72 ± 0.03 | 0.11 ± 0.026 | 0.13 ± 0.03 | 0.249 ± 0.075 | 0.237 ± 0.066
20 | ISSAGHNIRFLA | 0.599 ± 0.052 | 0.698 ± 0.022 | 0.658 ± 0.025 | 0.715 ± 0.008 | 0.107 ± 0.025 | 0.129 ± 0.034 | 0.21 ± 0.018 | 0.23 ± 0.052

Row | Sequence | protein stability index [1, 3] | protein stability index [1, 4] | protein stability index [1, 5] | protein stability index [1, 6] | protein stability index [1, 7] | protein stability index [1, 8] | protein stability index [1, 9] | protein stability index [2]
21 | ISTRLALCACVC | 0.184 ± 0.027 | 0.18 ± 0.0098 | 0.245 ± 0.019 | 0.3009 ± 0.0026 | 0.1999 ± 0.00074 | 0.208 ± 0.017 | 0.245 ± 0.0031 | 0.3273 ± 0.0032
22 | IVRDTECGIFYR | 0.689 ± 0.05 | 0.75 ± 0.021 | 0.642 ± 0.016 | 0.735 ± 0.023 | 0.6512 ± 0.0058 | 0.6662 ± 0.006 | 0.723 ± 0.021 | 0.731 ± 0.013
23 | IVVWCGIRYSIR | 0.328 ± 0.005 | 0.415 ± 0.055 | 0.263 ± 0.035 | 0.484 ± 0.0071 | 0.233 ± 0.013 | 0.262 ± 0.029 | 0.459 ± 0.0096 | 0.366 ± 0.032
24 | KKKEILVYIIQE | 0.598 ± 0.036 | 0.612 ± 0.024 | 0.438 ± 0.029 | 0.578 ± 0.018 | 0.4732 ± 0.0016 | 0.512 ± 0.077 | 0.592 ± 0.02 | 0.484 ± 0.014
25 | KRLALVSCSICG | 0.569 ± 0.03 | 0.6459 ± 0.003 | 0.446 ± 0.025 | 0.6239 ± 0.002 | 0.321 ± 0.028 | 0.351 ± 0.031 | 0.583 ± 0.0087 | 0.4681 ± 0.0043
26 | KRRKERIKIQQI | 0.628 ± 0.037 | 0.715 ± 0.041 | 0.634 ± 0.073 | 0.737 ± 0.089 | 0.122 ± 0.0062 | 0.168 ± 0.046 | 0.28 ± 0.0094 | 0.261 ± 0.062
27 | KVGPVLLLCRRS | 0.6524 ± 0.00046 | 0.68 ± 0.023 | 0.637 ± 0.013 | 0.699 ± 0.0081 | 0.621 ± 0.019 | 0.628 ± 0.028 | 0.69 ± 0.0066 | 0.445 ± 0.0089
28 | LAGSSSIVVVFG | 0.445 ± 0.00068 | 0.469 ± 0.04 | 0.299 ± 0.038 | 0.527 ± 0.0056 | 0.2496 ± 0.0021 | 0.297 ± 0.049 | 0.496 ± 0.026 | 0.406 ± 0.018
29 | LAGVVWVVWCVG | 0.17 ± 0.013 | 0.21 ± 0.0091 | 0.195 ± 0.031 | 0.385 ± 0.0088 | 0.1814 ± 0.00077 | 0.198 ± 0.03 | 0.367 ± 0.039 | 0.314 ± 0.06
30 | LALTRAAITHFF | 0.649 ± 0.026 | 0.749 ± 0.013 | 0.652 ± 0.017 | 0.743 ± 0.039 | 0.213 ± 0.0085 | 0.253 ± 0.026 | 0.496 ± 0.021 | 0.42 ± 0.026
31 | LASLSRPFRAKF | 0.9674 ± 0.0085 | 0.949 ± 0.026 | 0.843 ± 0.011 | 0.914 ± 0.013 | 0.828 ± 0.029 | 0.8573 ± 0.0074 | 0.916 ± 0.012 | 0.792 ± 0.0093
32 | LCFLVLLSLLLL | 0.558 ± 0.047 | 0.581 ± 0.018 | 0.464 ± 0.029 | 0.5486 ± 0.0041 | 0.466 ± 0.022 | 0.456 ± 0.024 | 0.5057 ± 0.0012 | 0.528 ± 0.061
33 | LCHILAIIRRGA | 0.691 ± 0.019 | 0.737 ± 0.032 | 0.596 ± 0.037 | 0.687 ± 0.013 | 0.429 ± 0.038 | 0.449 ± 0.05 | 0.624 ± 0.036 | 0.509 ± 0.05
34 | LCLRCQCIGTLS | 0.54 ± 0.017 | 0.587 ± 0.014 | 0.45 ± 0.023 | 0.557 ± 0.012 | 0.413 ± 0.016 | 0.435 ± 0.013 | 0.54 ± 0.0091 | 0.489 ± 0.0097
35 | LCSLSIFVLFSC | 0.192 ± 0.015 | 0.309 ± 0.027 | 0.209 ± 0.036 | 0.381 ± 0.0064 | 0.141 ± 0.0032 | 0.147 ± 0.017 | 0.272 ± 0.018 | 0.25 ± 0.005
36 | LCSVVIFCLVWG | 0.117 ± 0.0048 | 0.263 ± 0.041 | 0.198 ± 0.03 | 0.343 ± 0.044 | 0.177 ± 0.008 | 0.182 ± 0.019 | 0.306 ± 0.0083 | 0.324 ± 0.022
37 | LCVWRRAIVWVG | 0.363 ± 0.038 | 0.4573 ± 0.0015 | 0.352 ± 0.025 | 0.512 ± 0.007 | 0.0712 ± 0.011 | 0.0818 ± 0.021 | 0.0815 ± 0.0071 | 0.137 ± 0.039
38 | LFDYEAGEVMGG | 0.729 ± 0.042 | 0.747 ± 0.03 | 0.661 ± 0.023 | 0.783 ± 0.017 | 0.656 ± 0.025 | 0.689 ± 0.022 | 0.779 ± 0.023 | 0.717 ± 0.017
39 | LFFFLVWSLSVF | 0.0262 ± 0.0035 | 0.0512 ± 0.0066 | 0.0353 ± 0.011 | 0.0635 ± 0.02 | 0.0187 ± 0.0092 | 0.0205 ± 0.0042 | 0.0395 ± 0.013 | 0.0314 ± 0.029

From the supplement of paper PMC10724198
